Key:
[1] = biological target: KLK1-70Lm (KLK1 with D75, D76 and E77 replaced by arginines) (human); assay: kinetics of protease inhibition (discontinuous assay); 1 µM rKAL preincubated 5 min with LMWH (0-2.5 mg/mL) at room temperature, then 10 nM KLK1-70Lm; kobs plotted against LMWH
[2] = biological target: KLK1-70Lm (KLK1 with D75, D76 and E77 replaced by arginines) (human); assay: kinetics of protease inhibition (discontinuous assay); pseudo-first-order; 10 nM protease with 100-500 nM kallistatin variant, PBS, 0.1% PEG 8000, 22 ± 1 °C; apparent second-order rate constant kapp from kobs; k2 = kapp × SI
[3] = biological target: KLK1-99Lm (KLK1 with nine residues of its 99 loop deleted) (human) (UniProt P06870); assay: as above

fold acceleration of the inhibition rate with LMWH against no heparin [1]: 5 fold
k2 (second-order rate constant) [2]: 1800 M⁻¹ s⁻¹
second-order association rate constant [3]: 200 M⁻¹ s⁻¹
B1: Recombinant human kallistatin (rKAL), wild type (natural protein)
chain: GSPSLKIAPANADFAFRFYYLIASETPGKNIFFSPLSISAAYAMLSLGACSHSRSQILEGLGFNLTELSESDVHRGFQHLLHTLNLPGHGLETRVGSALFLSHNLKFLAKFLNDTMAVYEAKLFHTNFYDTVGTIQLINDHVKKETRGKIVDLVSELKKDVLMVLVNYIYFKALWEKPFISSRTTPKDFYVDENTTVRVPMMLQDQEHHWYLHDRYLPCSVLRMDYKGDATVFFILPNQGKMREIEEVLTPEMLMRWNNLLRKRNFYKKLELHLPKFSISGSYVLDQILPRLGFTDLFSKWADLSGITKQQKLEASKSFHKATLDVDEAGTEAAAATSFAIKFFSAQTNRHILRFNRPFLVVIFSTSTQSVLFLGKVVDPTKP

From publication PMC7356578
